{"source": "patent US20230097015A1", "about": "(SEOUL NATIONAL UNIVERSITY R AND DB FOUNDATION, published 2023)", "proteins": {"B1": {"name": "4CL-Kj12B COM^D (protein)", "chain": "MAPQEQAVSQVMEKQSNNNNSDVIFRSKLPDIYIPNHLSLHDYIFQNISEFATKPCLINGPTGHVYTYSDVHVISRQIAANFHKLGVNQNDVVMLLLPNCPEFVLSFLAASFRGATATAANPFFTPAEIAKQAKASNTKLIITEARYVDKIKPLQNDDGVVIVCIDDNESVPIPEGCLRFTELTQSTTEASEVIDSVEISPDDVVALPYSSGTTGLPKGVMLTHKGLVTSVAQQVDGENPNLYFHSDDVILCVLPMFHIYALNSIMLCGLRVGAAILIMPKFEINLLLELIQRCKVTVAPMVPPIVLAIAKSSETEKYDLSSIRVVKSGAAPLGKELEDAVNAKFPNAKLGQGYGMTEAGPVLAMSLGFAKEPFPVKSGACGTVVRNAEMKIVDPDTGDSLSRNQPGEICIRGHQIMKGYLNNPAATAETIDKDGWLHTGDIGLIDDDDELFIVDRLKELIKYKGFQVAPAELEALLIGHPDITDVAVVAMKEEAAGEVPVAFVVKSKDSELSEDDVKQFVSKQVVFYKRINKVFFTESIPKAPSGKILRKDLRAKLANGLGGGGSGGGGSLLKEKRKHFQAEQNSSQEYLRGEI"}, "B2": {"name": "4CL-MlnB COM^D (protein)", "chain": "MAPQEQAVSQVMEKQSNNNNSDVIFRSKLPDIYIPNHLSLHDYIFQNISEFATKPCLINGPTGHVYTYSDVHVISRQIAANFHKLGVNQNDVVMLLLPNCPEFVLSFLAASFRGATATAANPFFTPAEIAKQAKASNTKLIITEARYVDKIKPLQNDDGVVIVCIDDNESVPIPEGCLRFTELTQSTTEASEVIDSVEISPDDVVALPYSSGTTGLPKGVMLTHKGLVTSVAQQVDGENPNLYFHSDDVILCVLPMFHIYALNSIMLCGLRVGAAILIMPKFEINLLLELIQRCKVTVAPMVPPIVLAIAKSSETEKYDLSSIRVVKSGAAPLGKELEDAVNAKFPNAKLGQGYGMTEAGPVLAMSLGFAKEPFPVKSGACGTVVRNAEMKIVDPDTGDSLSRNQPGEICIRGHQIMKGYLNNPAATAETIDKDGWLHTGDIGLIDDDDELFIVDRLKELIKYKGFQVAPAELEALLIGHPDITDVAVVAMKEEAAGEVPVAFVVKSKDSELSEDDVKQFVSKQVVFYKRINKVFFTESIPKAPSGKILRKDLRAKLANGLGGGGSGGGGSKNEDQEILFLLEQLKNGELSADQVYQLLEGK"}, "B3": {"name": "4CL-MlnD COM^D (protein)", "chain": "MAPQEQAVSQVMEKQSNNNNSDVIFRSKLPDIYIPNHLSLHDYIFQNISEFATKPCLINGPTGHVYTYSDVHVISRQIAANFHKLGVNQNDVVMLLLPNCPEFVLSFLAASFRGATATAANPFFTPAEIAKQAKASNTKLIITEARYVDKIKPLQNDDGVVIVCIDDNESVPIPEGCLRFTELTQSTTEASEVIDSVEISPDDVVALPYSSGTTGLPKGVMLTHKGLVTSVAQQVDGENPNLYFHSDDVILCVLPMFHIYALNSIMLCGLRVGAAILIMPKFEINLLLELIQRCKVTVAPMVPPIVLAIAKSSETEKYDLSSIRVVKSGAAPLGKELEDAVNAKFPNAKLGQGYGMTEAGPVLAMSLGFAKEPFPVKSGACGTVVRNAEMKIVDPDTGDSLSRNQPGEICIRGHQIMKGYLNNPAATAETIDKDGWLHTGDIGLIDDDDELFIVDRLKELIKYKGFQVAPAELEALLIGHPDITDVAVVAMKEEAAGEVPVAFVVKSKDSELSEDDVKQFVSKQVVFYKRINKVFFTESIPKAPSGKILRKDLRAKLANGLGGGGSGGGGSDTADGEIMSLLEKAQTGEMNTKETSELIEELLFHE"}, "B4": {"name": "4CL-TycB COM^D (protein)", "chain": "MAPQEQAVSQVMEKQSNNNNSDVIFRSKLPDIYIPNHLSLHDYIFQNISEFATKPCLINGPTGHVYTYSDVHVISRQIAANFHKLGVNQNDVVMLLLPNCPEFVLSFLAASFRGATATAANPFFTPAEIAKQAKASNTKLIITEARYVDKIKPLQNDDGVVIVCIDDNESVPIPEGCLRFTELTQSTTEASEVIDSVEISPDDVVALPYSSGTTGLPKGVMLTHKGLVTSVAQQVDGENPNLYFHSDDVILCVLPMFHIYALNSIMLCGLRVGAAILIMPKFEINLLLELIQRCKVTVAPMVPPIVLAIAKSSETEKYDLSSIRVVKSGAAPLGKELEDAVNAKFPNAKLGQGYGMTEAGPVLAMSLGFAKEPFPVKSGACGTVVRNAEMKIVDPDTGDSLSRNQPGEICIRGHQIMKGYLNNPAATAETIDKDGWLHTGDIGLIDDDDELFIVDRLKELIKYKGFQVAPAELEALLIGHPDITDVAVVAMKEEAAGEVPVAFVVKSKDSELSEDDVKQFVSKQVVFYKRINKVFFTESIPKAPSGKILRKDLRAKLANGLGGGGSGGGGSEYTPSDLGDEELSMEELENILEWI"}, "B5": {"name": "4CL-TycA COM^D (protein)", "chain": "MAPQEQAVSQVMEKQSNNNNSDVIFRSKLPDIYIPNHLSLHDYIFQNISEFATKPCLINGPTGHVYTYSDVHVISRQIAANFHKLGVNQNDVVMLLLPNCPEFVLSFLAASFRGATATAANPFFTPAEIAKQAKASNTKLIITEARYVDKIKPLQNDDGVVIVCIDDNESVPIPEGCLRFTELTQSTTEASEVIDSVEISPDDVVALPYSSGTTGLPKGVMLTHKGLVTSVAQQVDGENPNLYFHSDDVILCVLPMFHIYALNSIMLCGLRVGAAILIMPKFEINLLLELIQRCKVTVAPMVPPIVLAIAKSSETEKYDLSSIRVVKSGAAPLGKELEDAVNAKFPNAKLGQGYGMTEAGPVLAMSLGFAKEPFPVKSGACGTVVRNAEMKIVDPDTGDSLSRNQPGEICIRGHQIMKGYLNNPAATAETIDKDGWLHTGDIGLIDDDDELFIVDRLKELIKYKGFQVAPAELEALLIGHPDITDVAVVAMKEEAAGEVPVAFVVKSKDSELSEDDVKQFVSKQVVFYKRINKVFFTESIPKAPSGKILRKDLRAKLANGLGGGGSGGGGSERTPSDFSVKGLQMEEMDDIFELLANTLR"}}, "key": {"Kj12C COM^A-CHS": {"biological_target": "T1, Kj12C COM^A-CHS", "T1 chain": "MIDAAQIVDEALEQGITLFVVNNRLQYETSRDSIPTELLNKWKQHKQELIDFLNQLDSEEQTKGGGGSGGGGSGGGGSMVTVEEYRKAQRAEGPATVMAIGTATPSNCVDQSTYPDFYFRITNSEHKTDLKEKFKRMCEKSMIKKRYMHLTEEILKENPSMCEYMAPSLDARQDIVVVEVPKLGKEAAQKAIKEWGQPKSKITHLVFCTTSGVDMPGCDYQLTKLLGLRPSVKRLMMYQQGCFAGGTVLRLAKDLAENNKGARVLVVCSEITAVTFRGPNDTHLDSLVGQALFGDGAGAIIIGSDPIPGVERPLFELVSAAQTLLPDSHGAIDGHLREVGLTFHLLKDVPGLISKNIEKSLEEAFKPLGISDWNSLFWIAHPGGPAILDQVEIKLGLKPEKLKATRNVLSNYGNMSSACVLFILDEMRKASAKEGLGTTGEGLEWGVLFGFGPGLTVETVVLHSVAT"}, "MlnC COM^A-CHS": {"biological_target": "T2, MlnC COM^A-CHS", "T2 chain": "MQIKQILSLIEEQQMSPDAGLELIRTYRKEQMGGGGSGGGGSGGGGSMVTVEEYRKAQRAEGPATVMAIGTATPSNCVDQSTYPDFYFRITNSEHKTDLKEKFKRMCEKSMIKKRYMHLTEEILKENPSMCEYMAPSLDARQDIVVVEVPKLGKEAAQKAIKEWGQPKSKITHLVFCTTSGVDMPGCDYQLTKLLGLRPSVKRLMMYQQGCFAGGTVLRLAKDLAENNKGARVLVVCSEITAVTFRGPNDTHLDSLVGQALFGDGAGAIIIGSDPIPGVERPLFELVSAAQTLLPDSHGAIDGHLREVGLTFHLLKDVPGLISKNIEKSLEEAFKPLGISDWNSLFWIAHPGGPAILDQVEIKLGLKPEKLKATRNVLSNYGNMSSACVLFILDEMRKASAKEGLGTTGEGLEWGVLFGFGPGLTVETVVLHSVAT"}, "MlnE COM^A-CHS": {"biological_target": "T3, MlnE COM^A-CHS", "T3 chain": "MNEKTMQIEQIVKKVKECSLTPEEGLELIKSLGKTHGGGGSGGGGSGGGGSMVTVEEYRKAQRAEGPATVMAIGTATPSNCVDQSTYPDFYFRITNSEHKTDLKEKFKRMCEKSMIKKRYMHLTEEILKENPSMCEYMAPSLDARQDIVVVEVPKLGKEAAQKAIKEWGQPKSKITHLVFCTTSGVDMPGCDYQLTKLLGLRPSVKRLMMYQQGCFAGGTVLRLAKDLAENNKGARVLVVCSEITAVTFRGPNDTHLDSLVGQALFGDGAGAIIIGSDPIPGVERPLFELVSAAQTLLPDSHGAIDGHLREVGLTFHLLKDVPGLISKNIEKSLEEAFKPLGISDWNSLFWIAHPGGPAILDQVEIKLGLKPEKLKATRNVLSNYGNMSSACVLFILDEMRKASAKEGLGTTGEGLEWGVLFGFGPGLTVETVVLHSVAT"}, "TycC COM^A-CHS": {"biological_target": "T4, TycC COM^A-CHS", "T4 chain": "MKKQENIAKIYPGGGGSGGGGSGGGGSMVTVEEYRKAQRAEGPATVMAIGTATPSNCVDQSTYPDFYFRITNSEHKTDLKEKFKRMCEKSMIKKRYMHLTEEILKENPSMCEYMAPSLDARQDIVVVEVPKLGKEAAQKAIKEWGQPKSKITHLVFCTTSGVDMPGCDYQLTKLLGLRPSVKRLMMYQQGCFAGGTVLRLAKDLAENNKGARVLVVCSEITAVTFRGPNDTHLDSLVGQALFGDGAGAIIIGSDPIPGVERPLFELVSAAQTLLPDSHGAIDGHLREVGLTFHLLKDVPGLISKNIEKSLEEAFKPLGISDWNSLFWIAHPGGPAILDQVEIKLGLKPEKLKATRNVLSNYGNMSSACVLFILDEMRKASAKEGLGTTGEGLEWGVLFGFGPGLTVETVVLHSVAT"}, "TycB COM^A-CHS": {"biological_target": "T5, TycB COM^A-CHS", "T5 chain": "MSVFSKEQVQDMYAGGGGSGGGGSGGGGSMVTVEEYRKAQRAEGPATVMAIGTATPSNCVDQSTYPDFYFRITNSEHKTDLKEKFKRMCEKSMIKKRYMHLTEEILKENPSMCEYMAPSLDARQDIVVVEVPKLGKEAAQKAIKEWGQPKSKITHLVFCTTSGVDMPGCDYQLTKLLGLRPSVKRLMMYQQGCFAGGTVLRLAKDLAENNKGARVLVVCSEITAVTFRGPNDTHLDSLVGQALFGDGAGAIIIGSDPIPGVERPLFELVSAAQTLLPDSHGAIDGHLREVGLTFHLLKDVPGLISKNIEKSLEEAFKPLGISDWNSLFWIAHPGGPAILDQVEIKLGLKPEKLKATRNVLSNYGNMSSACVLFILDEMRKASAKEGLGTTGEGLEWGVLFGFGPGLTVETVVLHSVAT"}}, "data": [{"protein": "B1", "values": [{"measurement": "production of naringenin (UPLC-qTOF-HR-MS), two-step in vitro reaction", "setting": "Kj12C COM^A-CHS", "value": "productivity by 2-step metabolon_5, Kj12B-C was found similar to that by free enzymes (2-step_control: Free)"}]}, {"protein": "B2", "values": [{"measurement": "production of naringenin (UPLC-qTOF-HR-MS), two-step in vitro reaction", "setting": "MlnC COM^A-CHS", "value": "the productivity by the metabolons with the remaining four pairs showed improvement"}, {"measurement": "production of naringenin (UPLC-qTOF-HR-MS), two-step in vitro reaction, against free enzymes", "setting": "MlnC COM^A-CHS", "value": "improved by 2 fold or more compared to that by free enzymes (Free) after 20 minutes of the reaction"}]}, {"protein": "B3", "values": [{"measurement": "production of naringenin (UPLC-qTOF-HR-MS), two-step in vitro reaction", "setting": "MlnE COM^A-CHS", "value": "the productivity by the metabolons with the remaining four pairs showed improvement"}]}, {"protein": "B4", "values": [{"measurement": "production of naringenin (UPLC-qTOF-HR-MS), two-step in vitro reaction", "setting": "TycC COM^A-CHS", "value": "the productivity by the metabolons with the remaining four pairs showed improvement"}]}, {"protein": "B5", "values": [{"measurement": "production of naringenin (UPLC-qTOF-HR-MS), two-step in vitro reaction", "setting": "TycB COM^A-CHS", "value": "the productivity by the metabolons with the remaining four pairs showed improvement"}]}]}
